In patent publication US9464326B2, “Total and phosphorylated IL-1 receptor-associated kinase-1 and IL-1 receptor-associated kinase-4 as a biomarker for cancer progression and chemotherapy resistance” (University of Maryland, Baltimore, priority 2012, dated 2016):

Experiments:
Format in all cases: cell-based, human
[1] = test system: SupT1; assay: Proliferation (3H-thymidine) of SupT1; conditions: SupT1; 3H-thymidine uptake, 72 h
Excerpt: (§1) CCRF-CEM, CEM/C1, CEM/C2, CEM-C7, Jurkat, Loucy, Molt-4, HSB-2, SUP-T1, Hut 78, HH, Hut 102, MO, and H9 T-leukemia and T-lymphoma cell lines were purchased from the American Type Culture Collection (Manassas, Va., USA). All of the cell lines were initially expanded and cryopreserved within one month of receipt. Cells were typically used for 6 months at which time a fresh vial of cryopreserved cells was used. Total T cells from healthy donors were isolated via negative selection followed by positive selection using a CD3+ selection kit (Invitrogen, Carlsbad, Calif.). T cells were isolated from patients with T-ALL bone marrow or peripheral blood samples containing more than 70% leukemia cells using a CD2+ isolation kit (STEMCELL Technologies, Vancouver, Canada). All tissues were collected under institutional IRB-approved protocols and all participants gave written informed assent/consent. For in vitro experiments, T-ALL cells were cultured in AIM-V medium supplemented with 20% human AB serum in the presence of recombinant human stem cell factor (50 ng/mL; Amgen, Thousand Oaks, Calif.), insulin (20 nM; Sigma-Aldrich, St Louis, Mo., USA) and IL-7 (50 ng/mL; R&D Systems, Minneapolis, Minn., USA). In other experiments, protein lysate was collected using the Full Moon Biosystems (Sunnyvale, Calif., USA) buffer prior to protein examination by western blot or protein array.
(§2) Cells were cultured in a 96-well plate (Corning Costar, Corning, N.Y., USA) with various concentrations of TLR ligands 1-9, starting at 10 μg/ml, in a final volume of 200 ul. TLR ligands were diluted 2-fold. Cell lines (25-40×10^3/well) were cultured for 54 hours, whereas fresh patient-derived T-ALL cells (200×10^3/well) were cultured for 30 hours prior to adding [^3H]-thymidine for 18 hours. After this time point, cells were harvested with a Packard Filter-Mate-96 cell harvester (Perkin Elmer, Waltham, Mass., USA) and counted on Packard Top Count-NXT (Perkin Elmer, Waltham, Mass., USA). Results were expressed as average counts per minute (cpm). In some experiments CCRF-CEM cells were pre-treated with TLR1-TLR2 ligand (Pam3CysK4; 2.5 ug/ml) for 48 hrs, washed, and then cultured in the presence of varying concentrations of FBS. Forty-eight hours later, proliferation (±SD) was determined by ^3H-thymidine incorporation. Alternatively, apoptosis was measured by flow cytometry after staining cells with Annexin-V (BD Pharmingen, San Diego, Calif., USA) and propidium iodide (Sigma). Cell number was counted under microscopy by staining cells with trypan blue.
(§3) The following TLR ligands were purchased from Invivogen (San Diego, Calif., USA): tripalmitoyl-S-(bis(palmitoyloxy)propyl)-Cys-Ser-(Lys)3-Lys (TLR1-2); Poly I:C (TLR3); ultrapure S. Minnesota Lipopolysaccharide (TLR4); S. typhimurium flagellin (TLR5); FSL-1 (TLR2/6); Imiquimod (TLR7); ssRNA40/Lyovec (TLR8); CpG-ODN 2006 (TLR9).

[2] = test system: Primary T-cells Activated; assay: Proliferation (3H-thymidine) of activated primary T-cells; conditions: Primary T-cells, Activated
Excerpt: as §1, §2, §3

[3] = test system: MO; assay: Proliferation (3H-thymidine) of MO; conditions: 3H-thymidine uptake, 72 h
Excerpt: as §1, with “In other experiments, protein lysate was collected using the Full Moon Biosystems (Sunnyvale, Calif., USA) buffer prior to protein examination by western blot or protein array.” left out
(§4) Cells were cultured in a 96-well plate (Corning Costar, Corning, N.Y., USA) with various concentrations of TLR ligands 1-9, starting at 10 μg/ml, in a final volume of 200 ul. […] After this time point, cells were harvested with a Packard Filter-Mate-96 cell harvester (Perkin Elmer, Waltham, Mass., USA) and counted on Packard Top Count-NXT (Perkin Elmer, Waltham, Mass., USA). Results were expressed as average counts per minute (cpm). […] Forty-eight hours later, proliferation (±SD) was determined by ^3H-thymidine incorporation. Alternatively, apoptosis was measured by flow cytometry after staining cells with Annexin-V (BD Pharmingen, San Diego, Calif., USA) and propidium iodide (Sigma). Cell number was counted under microscopy by staining cells with trypan blue. […]

[4] = test system: CEM-C2; assay: Proliferation (3H-thymidine) of CEM-C2; conditions: 3H-thymidine uptake, 72 h
Excerpt: as §1
as §2, with “blue. […]” for “blue.”

[5] = test system: Hut-78; assay: Proliferation (3H-thymidine) of Hut-78; conditions: 3H-thymidine uptake, 72 h
Excerpt: as §1, with “In other experiments, protein lysate was collected using the Full Moon Biosystems (Sunnyvale, Calif., USA) buffer prior to protein examination by western blot or protein array.” left out
as §4

[6] = test system: HSB-2; assay: Proliferation (3H-thymidine) of HSB-2
Excerpt: as §1, §2, §3

[7] = test system: HH; assay: Proliferation (3H-thymidine) of HH; conditions: 3H-thymidine uptake, 72 h
Excerpt: as §1, with “In other experiments, protein lysate was collected using the Full Moon Biosystems (Sunnyvale, Calif., USA) buffer prior to protein examination by western blot or protein array.” left out
as §4

[8] = test system: A375 cells; assay: Western blot of IRAK phosphorylation in A375; conditions: 48 hours
Protocol: (§5) FIG. 22. Effects of TLR stimulation and cytokines on IRAK phosphorylation in melanoma cells. (A) A375 cells were cultured in the presence of anti-IL-18, anti-CXCL-1, (R&D Systems), anti-IL-1 (BioLegend), or mouse IgG (Sigma-Aldrich) all at 10 μg/ml. Forty-eight hours later the levels of the indicated proteins were determined by western blot. (B) A375 cells, which express p-IRAK-1 and p-IRAK-4, and G361 melanoma cells, which express very low levels of p-IRAK-1 (and express TLR5) were cultured in the presence of TLR1-TLR2 agonist (Pam3CysK4; 2.5 μg/ml) or TLR5 (flagellin; 100 ng/ml; InVivogen). Forty-eight hours later total protein was collected and the levels of the indicated proteins were examined by western blot.
(§6) Total cell extracts were prepared from melanoma cells. […] Melanoma tissue arrays were purchased from US Biomax, Inc (Rockville, Md.). For immunohistochemical staining samples were stained with mouse monoclonal anti-human phosphor-IRAK.-4 antibody (Abnova; dilution, 3.5 μg/ml) or normal mouse serum. Tissue histology sections (5-μm-thick) were deparaffinized, hydrated, heated in boiling 10 mmol/L sodium citrate (pH 6.0), for antigen retrieval, for 30 min and washed in Tris buffer. Peroxide blocking was done with 3% […] in methanol at room temperature for 15 min, followed by 10% fetal bovine serum in TBS-t for 30 min at room temperature. Primary antibody incubation was done overnight at 4° C. Secondary antibody incubation with horse anti-mouse (1:200; Vector Laboratories, Burlingame, Calif.) was done for 1 hr, followed by application of diaminobenzidine chromogen for 5 min. The slides were then counterstained with hematoxylin and topped with a coverslip. IHC specimens were analyzed using “quick score” system in which the intensity of the immunohistochemical reaction was scored by multiplying the intensity 1 (weak), 2 (moderate), and 3 (strong) and the proportion of cells staining positively 0 (<10%), 1 (10-25%), 2 (26-50%), 3 (51-75%) or 4 (>75%).

[9] = test system: Loucy; assay: Proliferation (3H-thymidine) of Loucy; conditions: 3H-thymidine uptake, 72 h
Excerpt: as §1
as §2, with “blue. […]” for “blue.”

[10] = test system: G361 melanoma cells; assay: Western blot of IRAK phosphorylation in G361; conditions: 48 hours
Protocol: as §5, §6

[11] = test system: CEM-C1; assay: Proliferation (3H-thymidine) of CEM-C1; conditions: 3H-thymidine uptake, 72 h
Excerpt: as §1
as §2, with “blue. […]” for “blue.”

[12] = test system: CCRF-CEM; assay: Proliferation (3H-thymidine) of CCRF-CEM; conditions: 3H-thymidine uptake, 72 h
Excerpt: as §1, §2, §3

[13] = test system: Molt-4; assay: Proliferation (3H-thymidine) of Molt-4; conditions: 3H-thymidine uptake, 72 h
Excerpt: as §1, with “In other experiments, protein lysate was collected using the Full Moon Biosystems (Sunnyvale, Calif., USA) buffer prior to protein examination by western blot or protein array.” left out
as §4

[14] = test system: H9; assay: Proliferation (3H-thymidine) of H9; conditions: H9
Excerpt: as §1, §2, §3

[15] = test system: Jurkat; assay: Proliferation (3H-thymidine) of Jurkat; conditions: 3H-thymidine uptake, 72 h
Excerpt: as §1
as §2, with “blue. […]” for “blue.”

[16] = test system: Primary T-cells Non-Act; assay: Proliferation (3H-thymidine) of non-activated primary T-cells; conditions: 3H-thymidine uptake, 72 h
Excerpt: as §1, with “In other experiments, protein lysate was collected using the Full Moon Biosystems (Sunnyvale, Calif., USA) buffer prior to protein examination by western blot or protein array.” left out
as §4

[17] = test system: CEM-C7; assay: Proliferation (3H-thymidine) of CEM-C7
Excerpt: as §1, §2, §3

[18] = test system: Hut 102; assay: Proliferation (3H-thymidine) of Hut 102; conditions: 3H-thymidine uptake, 72 h
Excerpt: as §1, with “In other experiments, protein lysate was collected using the Full Moon Biosystems (Sunnyvale, Calif., USA) buffer prior to protein examination by western blot or protein array.” left out
as §4

[19] = Pam3CysK4 2.5 μg/ml or flagellin 100 ng/ml, FIG. 22B

B1: Flagellin: S. typhimurium flagellin, TLR5 ligand (Invivogen) (protein, UniProt P06179 2-495, looked up)
Flagellin: AQVINTNSLSLLTQNNLNKSQSALGTAIERLSSGLRINSAKDDAAGQAIANRFTANIKGLTQASRNANDGISIAQTTEGALNEINNNLQRVRELAVQSANSTNSQSDLDSIQAEITQRLNEIDRVSGQTQFNGVKVLAQDNTLTIQVGANDGETIDIDLKQINSQTLGLDTLNVQQKYKVSDTAATVTGYADTTIALDNSTFKASATGLGGTDQKIDGDLKFDDTTGKYYAKVTVTGGTGKDGYYEVSVDKTNGEVTLAGGATSPLTGGLPATATEDVKNVQVANADLTEAKAALTAAGVTGTASVVKMSYTDNNGKTIDGGLAVKVGDDYYSATQNKDGSISINTTKYTADDGTSKTALNKLGGADGKTEVVSIGGKTYAASKAEGHNFKAQPDLAEAAATTTENPLQKIDAALAQVDTLRSDLGAVQNRFNSAITNLGNTVNNLTSARSRIEDSDYATEVSNMSRAQILQQAGTSVLAQANQVPQNVLSLLR
- Proliferative effects of TLR ligands [1]: ∘
- Proliferative effects of TLR ligands ([2]; 3H-thymidine uptake, 72 h): + (enhanced proliferation by 25% or greater)
- TLR ligand concentration in parentheses below the symbol ([2]; no unit in table (μg/ml)): (10)
- Proliferative effects of TLR ligands [3]: ∘
- Proliferative effects of TLR ligands [4]: ∘
- Proliferative effects of TLR ligands [5]: ∘
- Proliferative effects of TLR ligands ([6]; 3H-thymidine uptake, 72 h): − (reduced proliferation)
- TLR ligand concentration in parentheses below the symbol ([6]; no unit in table (μg/ml)): (10)
- Proliferative effects of TLR ligands [7]: ∘
- p-IRAK-1 or p-IRAK-4 expression levels [8, 19]: neither TLR-1-TLR2 agonist (Pam3CysK4), nor TLR5 (Flagellin) stimulation increased or induced
- total and p-IRAK-4 levels ([8]; flagellin 100 ng/ml): reduced
- Proliferative effects of TLR ligands [9]: ∘
- p-IRAK-1 or p-IRAK-4 expression levels [10, 19]: neither TLR-1-TLR2 agonist (Pam3CysK4), nor TLR5 (Flagellin) stimulation increased or induced
- total and p-IRAK-4 levels ([10]; flagellin 100 ng/ml): reduced
- Proliferative effects of TLR ligands [11]: ∘
- Proliferative effects of TLR ligands [12]: ∘
- Proliferative effects of TLR ligands [13]: ∘
- Proliferative effects of TLR ligands ([14]; 3H-thymidine uptake, 72 h): − (reduced proliferation)
- TLR ligand concentration in parentheses below the symbol ([14]; no unit in table (μg/ml)): (10)
- Proliferative effects of TLR ligands [15]: ∘
- Proliferative effects of TLR ligands [16]: ∘
- Proliferative effects of TLR ligands ([17]; 3H-thymidine uptake, 72 h): − (reduced proliferation)
- TLR ligand concentration in parentheses below the symbol ([17]; no unit in table (μg/ml)): (2.5)
- Proliferative effects of TLR ligands [18]: ∘
